Assay: yeast display, Sf9 membrane polyspecificity reagent, FACS + sequencing; frameworks hold sequencing errors
Summary of the method: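 Nanobodies from a synthetic yeast display library (Saccharomyces cerevisiae BJ5465), induced 36–48 hours with galactose, were stained 1 hour at 4 °C with 10% biotinylated, detergent-solubilized Sf9 membrane reagent, enriched on streptavidin microbeads, then FACS-sorted. Anti-HA (expression) and streptavidin (reagent binding) fluorescence set low and high (top ~1%) gates. Polyreactivity labels come from the gate of origin. Genes were colony-PCR amplified, MiSeq 2 × 250 sequenced and filtered by CDR length.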

Sequence	polyreactivity (PSR sort gate)
QVQLVESGGGLVQAGGRLRLSCAASGFTIRLYTMGWYRQAPGKERELVAAITYSGDSTYYADSVKGRFTISRDNAKNTVYLQMNSLKPVDTAVYYCAARKYYARYYWGQGTQVTVSS	high polyreactivity
QVQLVESGGGLVQAGGSLRVSCAPSGGTFGYYTMGWYRQAPGTERELVAAISSGGGTDYADSVKGRFTISRDNAKNTVYLQMNSLKPEDTAVYYCNAKWLELHYVFLPSYTMDYWGHGTQVTVSS	low polyreactivity
QVQLVESGGGLVQAGGSLRLSCAASGSTFVQNAMGWYRQAPGKERELVAAISKSGGRTYYADSVKGRFTISRDNEKNTVYLQINSLNAEDTAVYYCARPYSRAYDYWGQGTQVTVSS	high polyreactivity
QVQLVESGGGLVQAGGSLRLSCAASGSTFLNYAMGWYRQAPGKERELVAAISFSGGRTYYADSVKGRFTISRDNAKNTVYLQMNSLKPEDTAVYYCAAGGWRGHYYWGQGTQVTVSS	high polyreactivity
QVQLVESGGGLVQAGGSLRLSCASSGRIFSFYAMGWYRQAPGKERELVAAISWNSGRTYYADSVKGRFTISRDNAKNTVYLQMNSLKPEDTAVYYCAAPFSAYYGDDYWGQGTQVTVSS	low polyreactivity
QVQLVESGGGLVQAGGSLRLSCAASGFIFNSYAMGWYRPAPGKERELVAVISWSGGTTYYADSVKGRFTISRDNAKNTVFLQMNSLKPEDTAVYYCAASSYRSQYGYWGQGTQVTVSS	high polyreactivity
QVQLVESGGGLVQAGGSLRLSCAASGFTFYRNAMGWYRQAPGKERELVARISRGGSTNYADSVKGRFTISRDNAKNTVYLQMNSLKPEDTAVYYCNRDYYVGRYDYWGQGTQVTVSS	high polyreactivity
QVQLVESGGGLVQEGGSLRLSCAASGITFGTNAMGWYRQAPGKERELVAAIRRDGSTYYADSVKGRFTISRDNAKNTVYLQMNSLKPEDTAVYYCAATYWGRAYQGYRNLLYGYWGQGTQVTVSS	high polyreactivity
QVQLVESGGGLVQAGGSLRLSCAASGFIFVRNTMGWYRQAPGKERELVASISRRGRTTYYADSVKGRFTISRDNAKNTVSLQMNSLKPEDTAVYYCNARYRVPKQGDYWGQGTQVTVSS	high polyreactivity
QVQLVESGGGLVQAGGSLRLSCAASGSTFDGNAMGWYRQAPGTERELVATINSDDSKNYADSVKGRFTISRDNAKNTVYLQMNSLKPEDTAVYYCAARLYVTPILSYVERYTNDYWGQGTQVTVSS	low polyreactivity
QVQLVESGGGLVQAGGSLRLSCAASGSIFDEYAMGWYRQAPGKERELVAAITRTGGRTYYADSVKGRFTISRDNAKNTVYLQMNSLKPEDTAVYYSAKGTNYRDDYWGQGTQVTVSS	low polyreactivity
QVQLVESGGGLVQAGGSLRLSCAASGSTFDYYAMGWYRQAPVKERELVAAITGTGGSTYYADSVKGRFTISRDNAKNTVYLQINRLKPEDTAVYYCAADTYLGWSYYWGQGTQVTVSS	high polyreactivity
QVQLVESGGGLVQAGGSLRLSCAASGFTFYRYAMGWYRQAPGKERELVAVITGRGGTTYYADSVKGRFTISRDNAKNTVYLQMNSMKPEDTAVYYCAVQTHRSLDPYDYWGQGTQVTVSS	high polyreactivity
QVQLVESGGGLVQAGGSLRLSCAASVFTFTRYVMGWYRQAPVKERELVAAISGSGGSTNYADSVKGRFTISRDNAKNTVYLQMNSLKPEDTVVYYCAARFVGSRYRFDYWGQRTQVTVSS	high polyreactivity
QVQLVESGGGLVQAGGSLRLSCAASGFIFEYYAMGWYRQAPGKERELVAAISSSGGSTYYADSVKGRFTISRDNAKNTVYLQMNSLKPEDTAVYYCAKDYAPSATKLHYWGQGTQVTVSS	low polyreactivity
QVQLVESGGGLVQAGGSLRLSCAASGRTFPAYAMGWYRQAPGKERELVAAITWSGGRTYYADSVKGRFTISRDNAKNTVYLQMNSLKPEDTAVYYCAAQYRVLWYSYYYWGQGTQVTVSS	high polyreactivity
QVQLVESGGGLFQAGGSLRLSCAASGLTFYVYAMGWYRQAPGKERELVAAITQNGGTTYYADSVKGRFTISRDNAKNTVYLQMNSLKPEDTAVYYCAAGNRSLGGRLYRYYYWGQGTLVTVSS	high polyreactivity
QVQLVESGGGLVQAGGSLRLSCAASGRTFDTNARGWYRQAPGKERELVAVITARGGNTSYADSVKGRFTISRDNAKNTVYLQMNSLKPEDTAVYYCAARVYRAPWTYEEGNYWGQGTQVTVSS	low polyreactivity
QVQLVESVGGLVQAGGSLRLSCAASGSIFDSYAMGWYRQAPGKERELVADISSGGSTYYADSVKGRFTISRDNAKNTVYLQMNSLKPEDTAVYYCAAQYVYYFYGDEAFTDDYWGQGTQVTVSS	low polyreactivity
QVQLEESGGRLVQAGGSLRLSCAASGRTFYVYALGWYRQAPGKEREFVAAISGSGGSTFYADSVKGRFTISRDNPKNTVYLQMNSLKPEDTAVYYCATGGSYLYYLKFGHLSAFDYWGQGTQVTVSS	low polyreactivity
QVQLVESGGGLVQAGGSLRLSCAASGSIFVYYAMGWYRQAPGKERELVAAISSTGGRTYYADSVKGRFTISRDNAKNTVYLQMNSLKPEDTAVYYCNAARTGYRYYDWFYDYDYWGQGTQVTVSS	low polyreactivity
QVQLVESGAGLVQAGGSLRLSCAASGRTFYYYAMGWYRQAPGKERELVAAISSNGGSTYADSVKGRFTISRDNAKNTVYLQMNSLKPEDTAVYYCAAEPWWQEGDYWGQGTQVTVSS	high polyreactivity

Sequence	polyreactivity (PSR sort gate)
QVQLVESGGGLVQAGGSLRLSCAASGFIGWYAMGWYRQAPGNEREFVAAISASGGSTYYADSVKGRFTISRDNAKNTVYLQMNSLKPEETAVYYCAAYYRAYNPRRFYYWGQGTQVTVSS	high polyreactivity
QVQLVESGGGLVQAGGSLRLSCAASGRIFATNAMGWDRPAPGKERELVATITRSAGRTYYADSVKGRFTISRDNAKNTVYFQMNSLKPEDTAVYYCAASYWDTEPGYREYDYWGQGTQVTVSS	low polyreactivity
QVQLVESGGGLVQAGGSLRLSCAASGSTFGVYAMGWYRQAPGKERELVAAINYSGRTYYADSVKGRFTISRDNAKNTVYLQMNSLKPEDTAVYYCAARIIVDDVGTKYYYWGQGTQVTVSS	high polyreactivity
QVQLQESGGGLVQAGGSLRLSCAASGTIFRISDMGSYRQAPGKEREFVAAITYGANTYYADSGKGRFTISRDNAKNTVYLQMNSLIPEDTAVYYCAVPPVKETILDYWGQGTQVTVSC	low polyreactivity
QVQLVESGGGLVQAGGSLRLSCAASGIIFELYAMGWYRQAPGKERELVAAISISGDSTYYADSVTGRFTISRDTAKNTVYLQMKSLKPEDTAVYYCAKQSYRWPYLVTKYYEYDYWGQGTQVTVSS	low polyreactivity
QVLLVESGGGLVQAGGSLRLSCAASGSTFWRNAMGWYRQATGKERELVAVISGSGSRTFYADSVKGRFTISRDNAKNTVNLQMNSLKPEDTAVYYCAADARQYQGFDYWGQGTQVTVSS	high polyreactivity
QVQLVESVVGLVQAGGSLRLSCAASGRIFYRYAMGWYRQAPGKERELVASITRSGITHYADSVKGRFTISRDNAKNTVYLQMNSLKPEDTAVYYCYARRGSPAPYDYWGQGTQVTVSS	high polyreactivity
QVQLVESRGGLVQAGGSLRLSCAASGRTFGIYTMGWYRQAPGKERKLVAAISKRGSSTYYADSVKGRFTISRDNANNTVYLQMNSLKPEDTAVYYCAATRRYRYNWGQGSQVTVSS	high polyreactivity
QVQLVESGGGLVQAGGSLRLSCAASGITFYGYDMGWFRQAPGKERELVASSTYYADSVKGRFTISRDNAKNTVYLQMNSLKPEDTAVYYCITVYYQWVTYGYWGQGTQVTVSS	high polyreactivity
QVQLVESGGGLVQAGGSLRLSCAASGSILVANGMGWYRKAPGKERELVAGITTRGGNTYYADSVKGRFTISRDNAKNTVYLQMNSLKPEDTAVYYCATDLIGVWYWYEYWGQGTQVTVSS	low polyreactivity
QGQLVESGGGLVQAGGSLRLSCAASGSIFVRNAMGWYRQAPGKERELVAADSVKGRFTISRDNAKNTVYLQMNSLKPEDTAVYYCNKDYIIRRGAIVYYGFDYWGHGTQVTVSS	low polyreactivity
QVQLVESGGGLVQAGGSLRLSCAASGRIFSRYAMGWYRQAPGKERELVAAINKSGGSTYYADSVKGRFTISRDNEKYTVYLQMNSLKPEDTAVDYCNAVYYWYKGDYWGQGTQVTVSS	high polyreactivity
QVQLVESEGGLVQAGGSLRLSCAASGRTYYAMGWYRQAPGKERELVAAISGTGASTYYADSVKGRFTISRDNAKNTVYLQMNSLKPEDTAVYYCAAEWFYYNTQQWFDYWGQGTQVPVSS	low polyreactivity
QVQLVESGGGLVQAGGSLRLSCAASGFTFRYNAMGWYRQAPGKERELVAAISWSGGSTYYADSVKGRFTISRDNAKNTVYLQMNSLKPEDTAVYYCNRAYGYSFSLNRYDYWGQGTQVTVSS	low polyreactivity
QVQLVESGGGLVQAGGSLRLSCAASGRIFIYYARGWYRQAPGKERELVAAISGGGGRTYYADSVKGRFTISRDNAKNTVYLQMNSLKPEDTAVYYCAAGVYTGQDEYDYWGQGTQVTVSS	low polyreactivity
QVQLVESGGGLVQAGGSLRLSCAASGRTFTRYAMGWYRQAPGKERELVAAITSSGRTYYADSVKGRFTISRDNAKNTVYLQMNSLKPEDTAVYYCAKYRANALNYANRGAGDYWGQGTQVTVSS	high polyreactivity
QVQLVESGGGLVQAGGSLRLSCAASGRTFEHYAMGWYRQAPGKERELVAAINSSDGGTYYADSVKGRITISRDNPKNTVYLQMNSLKPEDTAVYYCAAAEFGSVPGYEMDYWGQGTQVTVSS	low polyreactivity
QVQLVESGGGLVQAGGSLRLSCAASGRTFYKNTMGWYRQAPGKERELVAAIRWRGSSTYYADSVKGRFTISRDNAKNSVYLKMNSLKPEDTAVYYCAAPSSVRGKVISADYAYWGQGTQVTVSS	high polyreactivity
QVQLVESGGGLVQAGGSLRLSCAASGFTLYYSAMGWYRQAPGKERELVAAISYSGGSTYYADSVKGRFTISRDYAKNTVYLHMYSLKPEDTAVSYCAVQFSYGFTGGPIYDYWGQGTQVTVSS	low polyreactivity
QVQLVESAAGLVQAGGSLRLTCDGSGTTFPGYAMGWYRPEPGNERELVAAGGSTYYADSVKGRFTISRDNAKNTVYFQMNCLKPVETAGYYCAASWGSFQKGTYYYWGQGTQVTVSS	low polyreactivity
QVQLVESGGGLVQAGGSLRLSCAASGSIFLGYTMGWYRQAPGKERELVAAINSSGGSTYYADSVKGRFTISRDNAKNTVYLQMNSLKPEDTAVYYCADANSILLFDSWGQGTQVTVSS	low polyreactivity
